This is an account of results in patent US20230331850A1.

What all share (test): Bio-Layer Interferometry (Precision Antibody)
A general note: In BLI a coated tip is dipped into the sample, and binding shifts an interference pattern.

The target of test [1] is p63:IA^g7 (recombinant peptide:MHCII monomer / tetramer) (mouse).
Test [2] addresses 2W:IA^b (recombinant peptide:MHCII monomer) (mouse) (UniProt P14434).
Test [3] has as its target Eα52-68:IA^b (mouse) (UniProt P14434).

As for 10-2.16 MAb (anti-IA^g7) (antibody), in test [1], the Kd is 2.9 nM.
Regarding AF6-120.1 (antibody), the Kd in test [2] came out at 7.1 nM.
Take Y3P (antibody): in test [2], the Kd worked out at 1.9 nM.
In test [3], Y-Ae (anti-Eα:IA^b) (antibody) showed a Kd of 0.48 nM.

Broadly, the Kd is the equilibrium constant for the complex coming apart.
